Data on two substances can be found in patent US20150218286A1.

This experiment has as its target CD22 (human) (UniProt P20273). The experiment in a line: cell-based or functional assay.

HA22-LR-8X displayed an LC50, 697 cells (ALL), second series of 1 ng/mL; an LC50, EU cells (ALL), second series of 0.3 ng/mL; an LC50, KOPN 8 cells (ALL), second series of 0.4 ng/mL; an LC50, NALM 6 cells (ALL), second series of 2 ng/mL. In addition, the LC50, RAJI cells (Burkitt), second series amounted to 0.2 ng/mL and the LC50, REH cells (ALL), second series turned out to be 0.5 ng/mL.

With HA22-LR-KDEL, the LC50, 697 cells (ALL) was 0.2 ng/mL; the LC50, EU cells (ALL) was 0.3 ng/mL; the LC50, KOPN 8 cells (ALL) is 0.3 ng/mL; the LC50, NALM 6 cells (ALL) came out at 1 ng/mL. For the same substance, the LC50, RAJI cells (Burkitt) amounted to 0.2 ng/mL and the LC50, REH cells (ALL) was found to be 0.2 ng/mL.
